These results are taken from paper PMC1236978.

The data set deals with T1, HutP (V51I) (Bacillus subtilis, UniProt P10943 1-148, V51I).
T1 sequence: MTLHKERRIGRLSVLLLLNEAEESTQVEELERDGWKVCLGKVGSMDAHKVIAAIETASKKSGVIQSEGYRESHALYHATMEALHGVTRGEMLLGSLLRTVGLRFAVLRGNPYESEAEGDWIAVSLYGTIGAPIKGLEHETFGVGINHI
The data set is described as follows: EMSA.

B1: 21mer hut RNA (minimal RNA element) (ssRNA)
RNA: CAUAGAUCUUAGACGAUAGGG
In the case of B1, the binding result is given as “binds”.
